T1: CD66c (CEACAM6) on CD66c-positive A549 non-small-cell lung cancer cells (UniProt P40199 35-320, limits assumed)
T1 construct: whole, on cells; also called CD66c antigen; NCA-90
T1 sequence (looked up): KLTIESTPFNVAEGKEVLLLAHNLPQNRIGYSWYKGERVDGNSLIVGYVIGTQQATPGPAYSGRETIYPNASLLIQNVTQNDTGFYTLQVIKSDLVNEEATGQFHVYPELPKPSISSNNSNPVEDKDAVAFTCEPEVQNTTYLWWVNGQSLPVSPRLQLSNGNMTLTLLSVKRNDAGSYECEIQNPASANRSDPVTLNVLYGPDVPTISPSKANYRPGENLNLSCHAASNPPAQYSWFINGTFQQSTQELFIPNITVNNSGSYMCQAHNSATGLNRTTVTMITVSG

T2: Antigen CD66c (CEACAM6; Sino Biological, Inc.) (UniProt P40199 35-320)
T2 construct: Bought antigen coated on the ELISA plate; construct not described; also called CD66c antigen; CECACAM6
T2 sequence (looked up): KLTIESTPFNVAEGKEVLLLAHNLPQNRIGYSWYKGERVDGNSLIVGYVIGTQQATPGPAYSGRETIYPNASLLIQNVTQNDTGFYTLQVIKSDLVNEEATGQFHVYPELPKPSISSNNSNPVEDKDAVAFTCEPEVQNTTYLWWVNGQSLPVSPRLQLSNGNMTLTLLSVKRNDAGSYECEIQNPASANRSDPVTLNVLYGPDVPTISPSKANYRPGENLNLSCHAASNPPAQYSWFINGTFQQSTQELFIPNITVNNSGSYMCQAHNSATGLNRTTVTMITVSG


Tests used:
[1] = biological target: T1, CD66c (CEACAM6) on CD66c-positive A549 …; experiment: flow cytometry on CD66c-positive A549 cells, FITC anti-human IgG
Experimental: (§1) Each expressed 96 recombinant humanized antibody was poured and reacted in a test tube containing the same amount ([…]) of CD66c-positive A549 non-small-cell lung cancer cell line at 4° C. for 30 minutes, washed with PBS, and treated with FITC-conjugated goat anti-Human IgG (DiNona Inc, Korea) was added and incubated at 4° C. for 15 minutes. After washing with PBS, the cells were analyzed with a flow cytometer (Stratedigm, S1000EXi) and the results are shown below.
(§2) Among the 96 recombinant humanized antibody candidates, eight were firstly selected based on the degree of expression, the presence of aggregation, and the degree of cell binding (Table 9 and Table 10, FIGS. 3A to 3E).

[2] = biological target: T1, CD66c (CEACAM6) on CD66c-positive A549 …; experiment: flow cytometry on CD66c-positive A549 cells, mean fluorescence
Experimental: as §1, §2

[3] = biological target: T1, CD66c (CEACAM6) on CD66c-positive A549 …; experiment: flow cytometry on A549 cells, relative to chimeric antibody
Experimental: as §1, §2

[4] = biological target: T2, Antigen CD66c (CEACAM6; Sino …); experiment: ELISA, coated CEACAM6 100 ng/well, antibody 0.17 ng/ml
Experimental: (§3) Antigen CD66c (CEACAM6; Sino Biological, Inc.) and CEACAM1 antigen (Sino Biological, Inc.) were coated on a 96-well plate at 100 ng per well and then blocked. The primary antibody was diluted serially three fold from 10 ug/ml at initial concentration and was bound at 37° C. for 1 hour, and goat anti-Human Ig-HRP conjugate (Jackson ImmunoResearch) as a secondary antibody was diluted 1:10,000 and incubated at 37° C. for 30 minutes. The washing was carried out at three times between each step, and the TMB reaction was performed, stopped with 1N H₂SO₄ solution at the same amount of TMB solution (100 ul) and then OD value was measured at 450 nm.
(§4) As a result of the experiment, the binding affinities to CD66c antigen of the five kinds of recombinant humanized antibodies selected from among 96 kinds of recombinant humanized antibodies are shown in FIG. 4a, Table 12, FIG. 4b and Table 13. FIG. 4a and Table 12 show the binding capacity of the antibodies to CECACAM6 CD66c) antigen, and FIG. 4b and Table 13 are the results for the CEACAM1 (CD66a) antigen.

[5] = biological target: T2, Antigen CD66c (CEACAM6; Sino …); experiment: ELISA, coated CEACAM6 100 ng/well, antibody 1111.11 ng/ml
Experimental: as §3, §4

[6] = biological target: T2, Antigen CD66c (CEACAM6; Sino …); experiment: ELISA, coated CEACAM6 100 ng/well, antibody 123.46 ng/ml
Experimental: as §3, §4

[7] = biological target: T2, Antigen CD66c (CEACAM6; Sino …); experiment: ELISA, coated CEACAM6 100 ng/well, antibody 370.37 ng/ml
Experimental: as §3, §4

[8] = biological target: T2, Antigen CD66c (CEACAM6; Sino …); experiment: ELISA, coated CEACAM6 100 ng/well, antibody 4.57 ng/ml
Experimental: as §3, §4

[9] = biological target: T2, Antigen CD66c (CEACAM6; Sino …); experiment: ELISA, coated CEACAM6 100 ng/well, antibody 3333.33 ng/ml
Experimental: as §3, §4

[10] = biological target: T2, Antigen CD66c (CEACAM6; Sino …); experiment: ELISA, coated CEACAM6 100 ng/well, antibody 0.51 ng/ml
Experimental: as §3, §4

[11] = biological target: T2, Antigen CD66c (CEACAM6; Sino …); experiment: ELISA, coated CEACAM6 100 ng/well, antibody 10000.00 ng/ml
Experimental: as §3, §4

[12] = biological target: T2, Antigen CD66c (CEACAM6; Sino …); experiment: ELISA, coated CEACAM6 100 ng/well, antibody 41.15 ng/ml
Experimental: as §3, §4

[13] = biological target: T2, Antigen CD66c (CEACAM6; Sino …); experiment: ELISA, coated CEACAM6 100 ng/well, antibody 1.52 ng/ml
Experimental: as §3, §4

[14] = biological target: T2, Antigen CD66c (CEACAM6; Sino …); experiment: ELISA, coated CEACAM6 100 ng/well, antibody 13.72 ng/ml
Experimental: as §3, §4

% gated [1] | Mean [2] | % (% gated × mean) [3] | OD 450 nm [4] | OD 450 nm [5] | OD 450 nm [6] | OD 450 nm [7] | OD 450 nm [8] | OD 450 nm [9] | OD 450 nm [10] | OD 450 nm [11] | OD 450 nm [12] | OD 450 nm [13] | OD 450 nm [14] | Binder
70% | 561 | 86.9% | 0.68 OD | 3.34 OD | 3.04 OD | 3.23 OD | 1.32 OD | 3.26 OD | 0.8 OD | 3.13 OD | 2.45 OD | 0.95 OD | 1.77 OD | recombinant humanized anti-CD66c antibody Protein ID 3019 (Vk7 + VH10) (antibody, human IgG1, V domains shown, also called hu 3019; #51) VH: QVQLVQSGAEVKKPGASVKVSCKASGYSFTDYTMNWVKQAPGQNLEWIGLINPFHGGTVSNQRFKVKATMTVDVSTNTAYMELSRLRSDDTAVYYCVRGDPVRHYYALAYWGQGTLVTVSS VL: DIQMTQSPSTLSASVGDRVTITCGASENVYGTLNWYQRKPGKAPKLLIYGATNLADGVPSRFSGSGSGTEYTLTISSLQPDDFATYYCQNVLSAPYTFGGGTKLEIK
71% | 523 | 82.2% |  |  |  |  |  |  |  |  |  |  |  | recombinant humanized anti-CD66c antibody Protein ID 3046 (Vk8 + VH7) (antibody, human IgG1, V domains shown, also called #74) VH: QVQLVQSGAEVKKPGASMKISCKASGYSFTDYTMNWVRQAPGQGLEWIGLINPFHGGTVSNQRFKVKATLTVDVSTNTAYMELSRLRSDDTAVYYCVRGDPVRHYYALAYWGQGTLVTVSS VL: DIQMTQSPSTLSASVGDRVTITCRASENVYGTLNWYQRKPGKAPKLLIYGATNLADGMPSRFSGSGSGTEYTLTISSLQPDDFATYYCQNVLSAPYTFGGGTKLEIK

The remaining lines, values behind:

Binder | % gated [1] | Mean [2] | % (% gated × mean) [3] | OD 450 nm [4] | OD 450 nm [5] | OD 450 nm [6] | OD 450 nm [7] | OD 450 nm [8] | OD 450 nm [9] | OD 450 nm [10] | OD 450 nm [11] | OD 450 nm [12] | OD 450 nm [13] | OD 450 nm [14]
recombinant humanized anti-CD66c antibody Protein ID 3004 (Vk7 + VH5) (antibody, human IgG1, V domains shown, also called #41) VH: QVQLVQSGAEVKKPGASVKISCKASGYSFTDYTMNWVRQAHGQNLEWIGLINPFHGGTVSNQRFKVKATLTVDVSTNTAYMELSRLRSDDTAVYYCVRGDPVRHYYALAYWGQGTLVTVSS VL: DIQMTQSPSTLSASVGDRVTITCGASENVYGTLNWYQRKPGKAPKLLIYGATNLADGVPSRFSGSGSGTEYTLTISSLQPDDFATYYCQNVLSAPYTFGGGTKLEIK | 71% | 541 | 85% |  |  |  |  |  |  |  |  |  |  | 
recombinant humanized anti-CD66c antibody Protein ID 3010 (Vk7 + VH7) (antibody, human IgG1, V domains shown, also called #45) VH: QVQLVQSGAEVKKPGASMKISCKASGYSFTDYTMNWVRQAPGQGLEWIGLINPFHGGTVSNQRFKVKATLTVDVSTNTAYMELSRLRSDDTAVYYCVRGDPVRHYYALAYWGQGTLVTVSS VL: DIQMTQSPSTLSASVGDRVTITCGASENVYGTLNWYQRKPGKAPKLLIYGATNLADGVPSRFSGSGSGTEYTLTISSLQPDDFATYYCQNVLSAPYTFGGGTKLEIK | 70% | 554 | 85.8% |  |  |  |  |  |  |  |  |  |  | 
